From paper PMC3991583 (Nature, 2014)
Where two headings read alike, the source gives them in different places. One block for each binder: values may come before it.

What was measured:
Test in all cases: crystal structure
[1] = target: T1, AddA (nuclease-dead);AddB (nuclease-dead) (Bacillus subtilis?;Bacillus subtilis?, UniProt P23478;P23477 1-1232;1-1166, D1172A|D961A)
[2] = target: T1, AddA (nuclease-dead);AddB …; remark: listed apart in the source
[3] = target: T2, AddA subunit of the nuclease-dead AddAB mutant (AddA D1172A) (UniProt P23478 1-1232, D1172A)
T2 sequence: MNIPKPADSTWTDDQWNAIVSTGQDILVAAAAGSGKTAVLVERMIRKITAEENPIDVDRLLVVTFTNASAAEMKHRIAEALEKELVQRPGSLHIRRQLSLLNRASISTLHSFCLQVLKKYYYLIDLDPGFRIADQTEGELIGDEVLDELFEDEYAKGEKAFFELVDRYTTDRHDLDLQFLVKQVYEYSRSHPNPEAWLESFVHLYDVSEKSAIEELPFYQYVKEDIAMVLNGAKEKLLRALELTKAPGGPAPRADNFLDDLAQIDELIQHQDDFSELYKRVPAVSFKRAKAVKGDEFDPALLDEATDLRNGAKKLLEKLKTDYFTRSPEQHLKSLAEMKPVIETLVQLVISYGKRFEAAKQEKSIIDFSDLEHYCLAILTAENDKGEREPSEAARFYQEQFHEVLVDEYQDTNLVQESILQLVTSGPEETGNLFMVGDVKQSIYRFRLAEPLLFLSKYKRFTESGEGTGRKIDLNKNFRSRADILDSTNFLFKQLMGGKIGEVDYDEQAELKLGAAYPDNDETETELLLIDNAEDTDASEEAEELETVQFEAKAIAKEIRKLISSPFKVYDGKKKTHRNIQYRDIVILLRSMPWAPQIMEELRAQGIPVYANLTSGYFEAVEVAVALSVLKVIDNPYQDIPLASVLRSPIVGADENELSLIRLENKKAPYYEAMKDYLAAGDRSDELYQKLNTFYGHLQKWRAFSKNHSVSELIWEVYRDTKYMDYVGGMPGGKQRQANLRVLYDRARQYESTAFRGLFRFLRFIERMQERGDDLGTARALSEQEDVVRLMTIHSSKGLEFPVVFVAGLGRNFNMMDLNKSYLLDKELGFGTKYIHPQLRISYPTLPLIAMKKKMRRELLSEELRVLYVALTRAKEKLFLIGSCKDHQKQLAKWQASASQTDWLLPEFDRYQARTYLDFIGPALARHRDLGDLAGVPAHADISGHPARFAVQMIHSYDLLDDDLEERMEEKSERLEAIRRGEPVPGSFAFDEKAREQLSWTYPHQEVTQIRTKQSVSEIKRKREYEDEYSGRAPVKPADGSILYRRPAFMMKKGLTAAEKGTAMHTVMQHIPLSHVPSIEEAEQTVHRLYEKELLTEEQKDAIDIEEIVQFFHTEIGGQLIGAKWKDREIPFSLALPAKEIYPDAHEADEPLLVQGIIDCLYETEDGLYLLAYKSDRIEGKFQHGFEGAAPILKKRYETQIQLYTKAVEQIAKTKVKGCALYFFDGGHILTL

B1: oligo 023 (Chi, 6 T spacer) (structured_DNA)
DNA: TTTTTTTCTAATGCGAGCACTGCTATTCCCTAGCAGTGCTCGCATTAGATTTTGTTTTTTAGCGG
binding result [1]: binds

B2: oligo 027 (Chi, 7 T spacer, TTTT 3' extension) (structured_DNA)
DNA: TTTTTTTCTAATGCGAGCACTGCTATTCCCTAGCAGTGCTCGCATTAGATTTTGTTTTTTTAGCGGTTTT
binding result [2]: binds

binding result [3]: binds
B3: AddB subunit of the nuclease-dead AddAB mutant (AddB D961A) (enzyme)
chain: MGAEFLVGRSGSGKTKLIINSIQDELRRAPFGKPIIFLVPDQMTFLMEYELAKTPDMGGMIRAQVFSFSRLAWRVLQHTGGMSRPFLTSTGVQMLLRKLIEEHKQEFKVYQKASDKSGFTAQVERMLTEFKRYCLEPEDIRRMAESGTASEYRGERVLSEKLHDLSILYQQMEKSLADQYLHSEDYLTLLAEHIPLAEDIKGAHIYVDGFYQFTPQEFRVLEQLMVHAEHITFSLTADKPSYEREPHELELFRMTGKTYYRLHQKAKELNLDITYKELSGTERHTKTPELAHLEAQYEARPAIPYAEKQEALTVMQAANRRAELEGIAREIHALVREKGYRYKDVAILARQPEDYKDMVKEVFADYEIPYFIDGKASMLNHPLIEFIRSSLDVLKGNWRYEAVFRCVKTELLFPLNEPKAKVREQVDQLENYCIAYGIKGDRWTKGDRFQYRRFVSLDDDFAQTDQEIEMENMLNDTRDWIVPPLFQLQKRMKKAKTVQEKAEALYRYLEETDVPLKLDQERQRAEDDGRIIEAQQHQQAWDAVIQLLEEFVEMMGDDEISLDLFQQMIEAGAESLTFSLIPPALDQVFVGNMDLSRMYGTSCTFVLGANDGVLPARPDENGVLSDDDREWLKTIGVELSSGGRERLLDEHFLIYMAFSSPSDRLYVSYPIADAEGKTLLPSMIVKRLEELFPHHKERLLTNEPEQVSDEEQLMYVVNKSVAQSFTASQLRLWTREYDISDVWWSTYNVLMSEQDRLQSKKLFSSLFFRNEVKQLERSVSRQLYGERIQGSVSRMETFNACPFSHFASHGLHLKERQFFKLEAPDIGQLFHSSLKLISDRLREQKLDWRDLTKEQCELFSYDAVERLAPKLQKEILLSSNRHYYVKEKLQKIVTRVSGILSEHAKASGFVPIGLELGFGGKGPLPPLTFQLKNGCTMELVGRIDRVDKAESSKGLLLRIVAYKSSDKGLDLAEVYYGLALQMLTYLDLSITHSADWLGMRATPAGVLYFHIHDPMIQSNLPLGLDEIEQEIFKKFKMKGLLLGDQEVVRLMDTTLQEGRSNIINAGLKKDGSLRSDSAAVGEKEFDLLTKHVRRTFQEAGEQITDGRVSIEPYKMKNKTPCTYCAFKSVCQFDESLEENEYRPLKAEKDKTILEWIKKEADGNEHS
